Here are results for nine substances from patent publication US12295987B2, “Method of using a GIP/GLP1 co-agonist for diabetes” (Eli Lilly and Company, priority 2018, dated 2025).

In the assay the target is T1, human gastric inhibitory peptide receptor (hGIPR) (Homo sapiens, UniProt P48546).
T1 construct: expressed in transfected cells; host or cells: HEK293
T1 sequence (P48546 22-466): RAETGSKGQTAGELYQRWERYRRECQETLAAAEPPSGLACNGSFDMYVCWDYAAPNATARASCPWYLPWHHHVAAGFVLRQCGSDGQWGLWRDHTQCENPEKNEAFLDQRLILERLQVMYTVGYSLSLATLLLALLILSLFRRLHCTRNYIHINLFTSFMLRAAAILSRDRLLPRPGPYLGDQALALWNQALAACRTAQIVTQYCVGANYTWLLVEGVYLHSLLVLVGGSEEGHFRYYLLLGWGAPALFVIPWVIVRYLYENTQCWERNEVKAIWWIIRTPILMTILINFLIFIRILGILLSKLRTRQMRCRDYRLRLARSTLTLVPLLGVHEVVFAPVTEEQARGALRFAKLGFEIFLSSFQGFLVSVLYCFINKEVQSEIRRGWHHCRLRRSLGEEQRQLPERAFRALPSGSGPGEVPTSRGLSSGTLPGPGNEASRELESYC
Briefly: cAMP pharmacological functional assay in presence of 0.1% casein, hGIPR. In kind it is cell-based. As to conditions: ratio of hGIPR to hGLP1R cAMP EC50 ratios.
On to “Y-Aib-EGT-αMeF(2F)-TSDYSI-αMeL-LDEK((2-[2-(2-Amino-ethoxy)-ethoxy]-acetyl)2-(γGlu)-CO—(CH2)18—CO2H)AQ-Aib-EFIE-αMeY-LIEGGPSSGAPPPS-NH2 (YXEGTXTSDYSIXLDEKAQXEFIEXLIEGGPSSGAPPPS; Aib, αMeF(2F), αMeL, αMeY; lipidated K; amide; (2)..(2) Xaa at position 2 is Aib; (6)..(6) Xaa at position 6 is alpha-methyl-Phe(2F); (13)..(13) Xaa at position 13 is alpha-methyl-Leu; MOD_RES (17)..(17) Lys at position 17 is chemically modified by conjugation of the epsilon-amino group of the Lys side chain with (2-[2-(2-amino-ethoxy)-ethoxy]-acetyl)2-(gamma-Glu)-CO-(CH2)18- CO2H; (20)..(20) Xaa at position 20 is Aib; (25)..(25) Xaa at positi) [Peptide 223]”, for which the “[hGIPR/hGLP1R] EC50 Ratio” value is listed as 3.05.
Turning to “Y-Aib-EGT-αMeF(2F)-TSDYSI-αMeL-LDEK((2-[2-(2-Amino-ethoxy)-ethoxy]-acetyl)2-(γGlu)-CO—(CH2)18—CO2H)AQ-Aib-EFIEYLIEGG-NH2 (YXEGTXTSDYSIXLDEKAQXEFIEYLIEGG; Aib, αMe residues, C20 diacid lipidation, C-amide; (2)..(2) Xaa at position 2 is Aib; (6)..(6) Xaa at position 6 is alpha-methyl-Phe(2F); (13)..(13) Xaa at position 13 is alpha-methyl-Leu; MOD_RES (17)..(17) Lys at position 17 is chemically modified by conjugation of the epsilon-amino group of the Lys side chain with (2-[2-(2-amino-ethoxy)-ethoxy]-acetyl)2-(gamma-Glu)-CO-(CH2)18- CO2H; (20)..(20) Xaa at position 20 is Aib; MOD_RES (30)..(30) Gly a) [Peptide 103]”, the “[hGIPR/hGLP1R] EC50 Ratio” value stood at 3.07.
As to “Y-Aib-EGT-αMeF(2F)-TSDYSI-αMeL-LDEK((2-[2-(2-Amino-ethoxy)-ethoxy]-acetyl)2-(γGlu)-CO—(CH2)18—CO2H)AQ-Aib-EFIEYLIEGGPSSGAPPPS-NH2 (YXEGTXTSDYSIXLDEKAQXEFIEYLIEGGPSSGAPPPS; Aib, αMeF(2F), αMeL; acylated lysine C20 diacid; amide; (2)..(2) Xaa at position 2 is Aib; (6)..(6) Xaa at position 6 is alpha-methyl-Phe(2F); (13)..(13) Xaa at position 13 is alpha-methyl-Leu; MOD_RES (17)..(17) Lys at position 17 is chemically modified by conjugation of the epsilon-amino group of the Lys side chain with (2-[2-(2-amino-ethoxy)-ethoxy]-acetyl)2-(gamma-Glu)-CO-(CH2)18- CO2H; (20)..(20) Xaa at position 20 is Aib; MOD_RES (39)..(39) Ser a) [Peptide 118]”, the “[hGIPR/hGLP1R] EC50 Ratio” value turned out to be 3.03.
The figure for “Y-Aib-EGT-αMeF(2F)-TSDYSI-αMeL-LDEK((2-[2-(2-Amino-ethoxy)-ethoxy]-acetyl)2-(γGlu)-CO—(CH2)18—CO2H)AQ-Aib-EFIHYLIEGGPSSGAPPPS-NH2 (YXEGTXTSDYSIXLDEKAQXEFIHYLIEGGPSSGAPPPS; Aib, αMeF(2F), αMeL; acylated lysine C20 diacid; amide; (2)..(2) Xaa at position 2 is Aib; (6)..(6) Xaa at position 6 is alpha-methyl-Phe(2F); (13)..(13) Xaa at position 13 is alpha-methyl-Leu; MOD_RES (17)..(17) Lys at position 17 is chemically modified by conjugation of the epsilon-amino group of the Lys side chain with (2-[2-(2-amino-ethoxy)-ethoxy]-acetyl)2-(gamma-Glu)-CO-(CH2)18- CO2H; (20)..(20) Xaa at position 20 is Aib; MOD_RES (39)..(39) Ser a) [Peptide 153]” is 3.39.
The figure for “Y-Aib-EGT-αMeF(2F)-TSDYSI-αMeL-LDEK((2-[2-(2-Amino-ethoxy)-ethoxy]-acetyl)2-(γGlu)-CO—(CH2)18—CO2H)AQ-Aib-EFIPYLIEGGPSSGAPPPS-NH2 (YXEGTXTSDYSIXLDEKAQXEFIPYLIEGGPSSGAPPPS; Aib, αMeF(2F), αMeL; acylated lysine C20 diacid; amide; (2)..(2) Xaa at position 2 is Aib; (6)..(6) Xaa at position 6 is alpha-methyl-Phe(2F); (13)..(13) Xaa at position 13 is alpha-methyl-Leu; MOD_RES (17)..(17) Lys at position 17 is chemically modified by conjugation of the epsilon-amino group of the Lys side chain with (2-[2-(2-amino-ethoxy)-ethoxy]-acetyl)2-(gamma-Glu)-CO-(CH2)18- CO2H; (20)..(20) Xaa at position 20 is Aib; MOD_RES (39)..(39) Ser a) [Peptide 151]” is 9.42; for “Y-Aib-EGT-αMeF(2F)-TSDYSI-αMeL-LDEK((2-[2-(2-Amino-ethoxy)-ethoxy]-acetyl)2-(γGlu)-CO—(CH2)18—CO2H)AQ-Aib-EFISYLIEGGPSSGAPPPS-NH2 (YXEGTXTSDYSIXLDEKAQXEFISYLIEGGPSSGAPPPS; Aib, αMeF(2F), αMeL; acylated lysine C20 diacid; amide; (2)..(2) Xaa at position 2 is Aib; (6)..(6) Xaa at position 6 is alpha-methyl-Phe(2F); (13)..(13) Xaa at position 13 is alpha-methyl-Leu; MOD_RES (17)..(17) Lys at position 17 is chemically modified by conjugation of the epsilon-amino group of the Lys side chain with (2-[2-(2-amino-ethoxy)-ethoxy]-acetyl)2-(gamma-Glu)-CO-(CH2)18- CO2H; (20)..(20) Xaa at position 20 is Aib; MOD_RES (39)..(39) Ser a) [Peptide 150]” it is 3.34.
The result for “Y-Aib-EGT-αMeF(2F)-TSDYSI-αMeL-LDEK((2-[2-(2-Amino-ethoxy)-ethoxy]-acetyl)2-(γGlu)-CO—(CH2)18—CO2H)AQ-Aib-EFIVYLIEGGPSSGAPPPS-NH2 (YXEGTXTSDYSIXLDEKAQXEFIVYLIEGGPSSGAPPPS; Aib, αMeF(2F), αMeL; acylated lysine C20 diacid; amide; (2)..(2) Xaa at position 2 is Aib; (6)..(6) Xaa at position 6 is alpha-methyl-Phe(2F); (13)..(13) Xaa at position 13 is alpha-methyl-Leu; MOD_RES (17)..(17) Lys at position 17 is chemically modified by conjugation of the epsilon-amino group of the Lys side chain with (2-[2-(2-amino-ethoxy)-ethoxy]-acetyl)2-(gamma-Glu)-CO-(CH2)18- CO2H; (20)..(20) Xaa at position 20 is Aib; MOD_RES (39)..(39) Ser a) [Peptide 149]” reads 3.76.
As to “Y-Aib-EGT-αMeF(2F)-TSDYSI-αMeL-LDEK((2-[2-(2-Amino-ethoxy)-ethoxy]-acetyl)2-(εK)-CO—(CH2)18—CO2H)AQ-Aib-EFI-(D-Glu)-YLIEGGPSSGAPPPS-NH2 (YXEGTXTSDYSIXLDEKAQXEFIXYLIEGGPSSGAPPPS; Aib, αMeF(2F), αMeL, D-Glu; εK-lipidated K; amide; (2)..(2) Xaa at position 2 is Aib; (6)..(6) Xaa at position 6 is alpha-methyl-Phe(2F); (13)..(13) Xaa at position 13 is alpha-methyl-Leu; MOD_RES (17)..(17) Lys at position 17 is chemically modified by conjugation of the epsilon-amino group of the Lys side chain with (2-[2-(2-amino-ethoxy)-ethoxy]-acetyl)2-(epsilon-Lys)-CO-(CH2)18- CO2H; (20)..(20) Xaa at position 20 is Aib; (24)..(24) Xaa at posi) [Peptide 216]”, the “[hGIPR/hGLP1R] EC50 Ratio” value was 3.75.
In the case of “Y-Aib-EGT-αMeF(2F)-TSDYSI-αMeL-LDEK((2-[2-(2-Amino-ethoxy)-ethoxy]-acetyl)2-CO—(CH2)16—CO2H)AQ-Aib-EFI-(D-Glu)-YLIEGGPSSGAPPPS-NH2 (YXEGTXTSDYSIXLDEKAQXEFIXYLIEGGPSSGAPPPS; Aib, αMeF(2F), αMeL, D-Glu; lipidated K; amide; (2)..(2) Xaa at position 2 is Aib; (6)..(6) Xaa at position 6 is alpha-methyl-Phe(2F); (13)..(13) Xaa at position 13 is alpha-methyl-Leu; MOD_RES (17)..(17) Lys at position 17 is chemically modified by conjugation of the epsilon-amino group of the Lys side chain with (2-[2-(2-amino-ethoxy)-ethoxy]-acetyl)2-CO-(CH2)16-CO2H; (20)..(20) Xaa at position 20 is Aib; (24)..(24) Xaa at position 24 is D-Gl) [Peptide 214]”, the “[hGIPR/hGLP1R] EC50 Ratio” value is recorded as 3.98.
